Experimental data as given in article PMC3104520 (Biochemistry, 2011).
Where two headings read alike, the source gives them in different places.

Assays:
Assay in all cases: diffusion NMR
diffusion NMR [1] = target: the molecule itself
diffusion NMR [2] = target: the molecule itself; remark: listed apart in the source
diffusion NMR [3] = target: the molecule itself; remark: listed apart in the source

B1: Surfactant protein A (SP-A), bovine (natural protein)
chain: not shown
- stoichiometry N (diffusion NMR [1]): ~10 molecules
- stoichiometry N (diffusion NMR [2]): ~12 molecules
- stoichiometry N (diffusion NMR [3]): ~9 molecules
